Source: US20230002728A1, “STEM CELL FATE ENGINEERING METHODS” (Wisconsin Alumni Research Foundation, priority 2021, published 2023)

Tests used:
Type in all cases: cell-based, human
H9 hESCs [1] = assay: Localized mesendoderm differentiation of hPSCs on adsorbed BMP4 patterns (BRACHYURY immunostaining, day 2); conditions: for mesendoderm differentiation (BRA expression): two days in mTeSR1
Experimental: […] For glass surfaces, 1.5 ng/μl BMP4 solution was used. 5 ng/μl noggin solution was placed as a droplet to show an inhibitory effect of noggin on BMP4-induced mesendoderm differentiation. After washing, substrate was coated with Matrigel® for 2 hours as described above. Glass was coated with Matrigel® overnight. 0.025 mg/ml Synthemax (Corning, 3535) (final concentration, diluted in water) was added to a washed TC-treated plate and the plate was incubated for 2 hours at room temperature prior to cell seeding. 5 μg/ml truncated recombinant human vitronectin (Gibco, A14700) diluted in PBS was added to a washed TC-treated plate and the plate was incubated for 1 hour at room temperature prior to cell seeding. After ECM coating, the ECM solution was aspirated and hPSCs were singularized using Accutase (10 min incubation at 37° C.), resuspended in mTeSR1 supplemented with 5 μM Y-27632, and seeded at 5×10^5 to about 1×10^6 cells/cm^2 on coated substrates (day 0). On the next day (day 1), medium was changed with fresh mTeSR1. […]
For immunostaining of other protein markers, cells were fixed in 4% paraformaldehyde (Electron Microscopy Sciences, 15710-S) in PBS for 15 min at room temperature, washed with PBS three times, and incubated in diluted primary antibodies in 5% nonfat dry milk (Santa Cruz Biotechnology, sc-2324)/0.4% Triton X-100 (Fisher Scientific, BP151-500) PBS overnight at 4° C. […] After secondary antibody staining, the cells were washed with PBS three times, incubated in 2 μg/ml Hoechst 33342 diluted in PBS for 5 min at room temperature, washed with PBS two times, and analyzed under the fluorescence microscope. […]
Next, BMP4 solution was placed on TC-treated plates in various patterns (droplet, letters, circle, heart, and star), and hPSCs seeded onto the substrate in mTeSR1 maintenance medium. […] Since the presence of inhibitory morphogens is also important in developmental patterning, a BMP inhibitor, noggin, was evaluated for antagonism to localized BMP4-induced mesendoderm differentiation. […]

H9 hESCs [2] = assay: Localized cardiomyocyte differentiation on BMP4 patterns (cTnT immunostaining, day 8); conditions: 2.5 ng/μl BMP4 pattern, 5 μM IWP2 at day 3, day 8
Experimental: For localized cardiomyocyte (CM) differentiation, 2.5 ng/μl BMP4 solution was placed in PDMS stencil masks on a TC-treated plate. Matrigel® coating and hPSC seeding was performed as described above. At day 1 and day 2, medium was changed with fresh RPMI B27−. Afterwards, CM differentiation was performed based on the GiWi protocol (Lian et al. (2013) Nature protocols 8, 162-175). At day 3, cells were treated with 5 μM IWP2 in fresh RPMI B27−. At day 5, medium was changed with fresh RPMI B27−. At day 7, medium was changed with fresh RPMI B27+. At day 8, a beating phenotype of patterned CM derived from H9-hTNNT2-GFP hESC was recorded using a fluorescence microscope (Nikon, Eclipse Ti2-E) equipped with a heating stage top incubator (Tokai Hit, Tokai Hit STX Series Stage Top Incubator System). Cells were also immunostained for analysis at day 8.
Based on the results showing localized mesoderm differentiation on BMP-patterned substrates, mesodermal cells were examined to see if they could be further differentiated on these patterns into cardiomyocytes, a specialized mesodermal cell type. BMP4 patterns were used to direct mesoderm and Wnt inhibition by addition of IWP2 to the culture medium at day 3 to specify cardiac mesoderm and achieve patterned CM differentiation (FIG. 4A). The H9-hTNNT2-GFP hESC reporter line was used to visualize patterning of CMs in live cells. […]

[3] = test system: H9 hESC-derived cardiac progenitor cells (CPCs); assay: Localized EpiC differentiation of hPSC-derived cardiac progenitors on morphogen droplets (WT1 immunostaining); conditions: droplets on TC-coated PS plate, 7d after cardiac progenitor seeding
Experimental: For localized EpiC differentiation, BMP4 (2 ng/μl)+Wnt3a (40 ng/μl) solution was placed in PDMS stencil masks either on a TC-treated plate or an ibidi 35 mm polymer dish. Matrigel® coating was performed as described above. Cryopreserved CPCs were thawed and seeded at 500,000-550,000 cells/cm^2 in LaSR medium (advanced DMEM/F12 (Gibco, 12634-010) supplemented with 60 μg/ml ascorbic acid (Sigma, A8960) and 2.5 mM Glutamax (Gibco, 35050-061)) supplemented with 5 μM Y-27632). Medium was changed daily with fresh LaSR medium until analysis. Time lapse imaging of CPCs derived from H9-hTNNT2-GFP hESC during localized EpiC differentiation was performed using a fluorescence microscope equipped with a heating stage top incubator. 18 days after CPC seeding, cells cultured on an ibidi polymer dish were immunostained and imaged using a confocal microscope (Nikon, A1R-SI+) for the analysis of sarcomere structure.
Spatial organization of cell fate commitment is important throughout development. […] These cardiac progenitors can further differentiate into CMs without any specific external signaling factors and can also differentiate into EpiCs upon activation of canonical Wnt signaling (Bao et al. (2016) Nature biomed. Eng. 1, 1-12).

B1: BMP4: human recombinant BMP4 (Invitrogen, PHC9534), morphogen adsorbed on the substrate (protein, UniProt P12644 293-408, looked up)
Bone morphogenetic protein 4: SPKHHSQRARKKNKNCRRHSLYVDFSDVGWNDWIVAPPGYQAFYCHGDCPFPLADHLNSTNHAIVQTLVNSVNSSIPKACCVPTELSAISMLYLDEYDKVVLKNYQEMVVEGCGCR
B1 was tested, and the “mesendoderm differentiation (BRA expression)” value (H9 hESCs [1]; BMP4 droplets adsorbed on TC-treated PS, Matrigel coating) was “induced localized mesendoderm differentiation”, the “mesendoderm differentiation (BRA expression)” value (H9 hESCs [1]; BMP4 droplets adsorbed on untreated PS surface) was “none of the BMP4 droplets induced mesendoderm differentiation” and the “cell attachment on the patterned area” value (H9 hESCs [1]; untreated PS surface, 0.1, 0.2, and 2.5 ng/ul BMP4 droplets) was “partially or fully inhibited cell attachment”. The “cardiomyocyte differentiation (cTnT)” value (H9 hESCs [2]) was “localization of CMs to the patterned area” and the “EpiC differentiation (WT1 expression)” value [3] was “limited if any EpiC differentiation”.
